Measurements: publication PMC314469, “Protein Interaction Networks by Proteome Peptide Scanning” (PLoS Biology, 2004)

Tests used:
Assay in all cases: SPOT array
[1] = biological target: T1, Boi1 SH3 (BOI1_YEAST), P38041
T1 chain: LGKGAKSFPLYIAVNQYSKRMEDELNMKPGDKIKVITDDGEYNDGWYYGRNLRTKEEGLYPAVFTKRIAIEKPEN

[2] = biological target: T2, Boi2 SH3 (BOI2_YEAST), P39969
T2 chain: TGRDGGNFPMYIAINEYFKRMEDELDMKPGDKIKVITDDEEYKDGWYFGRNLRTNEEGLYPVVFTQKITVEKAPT

[3] = biological target: T3, Yfr024 SH3 (LSB3_YEAST), P43603
T3 chain: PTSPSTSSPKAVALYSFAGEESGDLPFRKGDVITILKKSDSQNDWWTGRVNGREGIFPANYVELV

[4] = biological target: Sho1 SH3 (SHO1_YEAST), P40073
[5] = biological target: T4, Rvs167 SH3 (RV167_YEAST), P39743
T4 chain: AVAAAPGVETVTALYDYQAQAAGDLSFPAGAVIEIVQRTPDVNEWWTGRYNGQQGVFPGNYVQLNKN

[6] = biological target: T5, Yhr016c SH3 (YSC84_YEAST), P32793
T5 chain: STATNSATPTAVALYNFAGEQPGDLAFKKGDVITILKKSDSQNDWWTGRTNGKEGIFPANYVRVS

[7] = biological target: T6, Myo5 SH3 (MYO5_YEAST), Q04439
T6 chain: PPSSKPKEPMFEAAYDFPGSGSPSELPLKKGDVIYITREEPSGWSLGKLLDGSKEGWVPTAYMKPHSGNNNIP

Chain of Sho1 SH3 (SHO1_YEAST), P40073 (P40073 295-366): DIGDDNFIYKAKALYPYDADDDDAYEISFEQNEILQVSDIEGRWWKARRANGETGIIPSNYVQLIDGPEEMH

Binder	normalised SPOT signal, Boehringer light units (BLU); mean over the file's lines of this peptide [1]	normalised SPOT signal, Boehringer light units (BLU); mean over the file's lines of this peptide [2]	normalised SPOT signal, Boehringer light units (BLU); mean over the file's lines of this peptide [3]	normalised SPOT signal, Boehringer light units (BLU); mean over the file's lines of this peptide [4]	normalised SPOT signal, Boehringer light units (BLU); mean over the file's lines of this peptide [5]	normalised SPOT signal, Boehringer light units (BLU); mean over the file's lines of this peptide [6]	normalised SPOT signal, Boehringer light units (BLU); mean over the file's lines of this peptide [7]
TVSDRLIPTSPQKT [YGR146C 10-23]	50	31.8	76.1	60.1	143	13	128
VDSFKYEPLAPGND [YLR335W 665-678]	0	13.5	0	22.1	35.2	15.2	134
VSHSKYIPLKPIQD [YGL017W 314-327]	138	29.9	34.8	25.4	6.3	25.7	298
VSTIRSTPSQPIHS [YDR390C 176-189]	93.9	39.1	177	59.8	68.8	37.4	245
TTTYKSRPDRPKPV [YBR289W 757-770]	607	23.7	266	44.7	97.7	68.7	309
VEVDKKVPVLPMVA [YMR108W 643-656]	107	31.8	98.7	30.9	180	43.3	130
VEMKRKKPVRPVDI [YDR436W 385-398]	1610	48.2	2590	66.9	64	152	472
VFYHRPAPKPPVTK [YDL028C 400-413]	879	29.2	156	267	90.2	95	9050
VAPNRIPPKVPVIN [YDR466W 429-442]	103	25	213	19.2	55.9	17.7	61100
VHFYKSLPQGPAPA [YDR377W 34-47]	49.8	44.6	90.7	5350	25.6	21.8	510

The next lines start with the values.

normalised SPOT signal, Boehringer light units (BLU); mean over the file's lines of this peptide [1]	normalised SPOT signal, Boehringer light units (BLU); mean over the file's lines of this peptide [2]	normalised SPOT signal, Boehringer light units (BLU); mean over the file's lines of this peptide [3]	normalised SPOT signal, Boehringer light units (BLU); mean over the file's lines of this peptide [4]	normalised SPOT signal, Boehringer light units (BLU); mean over the file's lines of this peptide [5]	normalised SPOT signal, Boehringer light units (BLU); mean over the file's lines of this peptide [6]	normalised SPOT signal, Boehringer light units (BLU); mean over the file's lines of this peptide [7]	Binder
3490	12.6	891	95.5	663	91.7	46200	TVRTRRRPPPPPIP [YNL094W 462-475]
12200	69.1	892	71.3	361	134	357	TYGFRVRPDFPVFG [YMR295C 130-143]
64.5	23.6	522	657	356	173	444	TYIWRYLPAPPVSI [YOR116C 255-268]
594	77.3	179	35.6	222	71.2	171	VEKRKFTPIEPSLL [YPL242C 332-345]
51.6	19.2	0	81	64.7	22.1	96.4	VFVEKSKPTYPGTE [YOL155C 384-397]
193	-0	20100	14200	11900	47100	101	TYLTRPLPSTPNED [YOL070C 348-361]
